# Experimental data reported in paper PMC1934993 (Nucleic Acids Research, 2007).
# Molecular target: the molecule itself
# Assay: crystal structure
protein,measurement,value
"C-terminally truncated Saccharomyces cerevisiae tyrosyl-tRNA synthetase (SceTyrRS, residues 1-364) (enzyme, UniProt P36421 1-364, looked up) MSSAATVDPNEAFGLITKNLQEVLNPQIIKDVLEVQKRHLKLYWGTAPTGRPHCGYFVPMTKLADFLKAGCEVTVLLADLHAFLDNMKAPLEVVNYRAKYYELTIKAILRSINVPIEKLKFVVGSSYQLTPDYTMDIFRLSNIVSQNDAKRAGADVVKQVANPLLSGLIYPLMQALDEQFLDVDCQFGGVDQRKIFVLAEENLPSLGYKKRAHLMNPMVPGLAQGGKMSASDPNSKIDLLEEPKQVKKKINSAFCSPGNVEENGLLSFVQYVIAPIQELKFGTNHFEFFIDRPEKFGGPITYKSFEEMKLAFKEEKLSPPDLKIGVADAINELLEPIRQEFANNKEFQEASEKGYPVATPQKSK",stoichiometry N,2
